Data taken from patent publication US20250289893A1 (OXFORD UNIVERSITY INNOVATION, published 2025).
Substitutions are numbered along the chain they refer to.

T1: Cynomolgus monkey CD1a protein (Cynomolgus monkey)
T1 chain: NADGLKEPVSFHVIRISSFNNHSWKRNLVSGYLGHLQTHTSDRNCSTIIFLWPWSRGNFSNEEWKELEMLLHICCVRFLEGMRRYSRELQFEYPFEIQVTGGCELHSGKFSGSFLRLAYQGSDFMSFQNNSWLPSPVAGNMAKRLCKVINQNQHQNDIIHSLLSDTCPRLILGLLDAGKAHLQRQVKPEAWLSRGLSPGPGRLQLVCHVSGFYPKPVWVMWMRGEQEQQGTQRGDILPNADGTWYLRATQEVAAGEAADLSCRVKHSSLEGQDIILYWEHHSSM

B1: 77A (VR11851) (antibody, V domains shown)
VH: QSVEESGGRLVTPGTPLTLTCTVSGFSLSSYAMSWVRQAPGKGLEWIGIISSSGTTYYASWAKGRFTISKTSTTVDLKITSPTTEDTATYFCARVDYYSSGWGGLWGPGTLVTVSS
VL: AVEMTQTPASMSAAVGGTVTIKCQASEDIYSNLAWYQQKPGQPPKLLIYGASTLASGVPSRFKGSGSGTEYTLTISGVQCDDAATYYCQCTYDTSSYGNTFGGGTEMVVE
notes: also called OX77a; antibody 77a
B2: 111 (VR12113) (antibody, V domains shown)
VH: QSVEESGGRLVTPGTPLTLTCTASGFSLSTYAMSWVRQAPGKGLEWIGIISSSGSTYYASWAKGRFTISKTSTTVDLKITSPTTEDTATYFCARETWYWLDLWGQGTLVTVSS
VL: B1 VL with M11V, K22N, T91A, T94S, N99T, T100P, M107V, E110K
notes: also called OX111
B3: 110 (VR12112) (antibody, V domains shown)
VH: QSVEESGGRLVTPGTPLTLTCTVSGFSLSSYAMIWVRQAPGKGLEWIGIINSSDNTHYATWAKGRFTISKTSTTVDLKITSPTTEDTATYFCARDPYDYGYGWYFDLWGPGTLVTVSS
VL: AQVLTQTPSPVSAAVGGTVTINCQASQSVFNNKNLAWYQQKPGQPPKLLIYKASTLASGVSSRFKGSGSGTQFALTISGVQCDDAATYYCQGEFSCSSTDCVTFGGGTEVVVK
notes: also called OX110; antibody 110
B4: 116 (VR12117) (antibody, V domains shown)
VH: QSVEESGGRLVTPGTPLTLTCTVSGFSLSNYAMSWVRQAPGKGLEWIGIIYTTGFTYYASWVKGRFTISKTSTTVDLKITSPTTEDTATYFCARGLATYVSPPTRLDLWGQGTLVTVSS
VL: AQVLTQTPSPVSAAVGGTVTINCQASQSIYNSKNLAWYQQKPGQPPKLLIYSASTLASGVPSRFKGSGSGTQFTLTISDLECDDAATYYCQGEFSCSSVDCATFGGGTEVVVK
notes: also called OX116

Each binder was assayed against T2, human CD1a protein (pool B) (human, UniProt P06126 18-295, limits assumed) (assay: ELISA, 3.16 µg/ml antibody).
T2 construct: Recombinant protein of the ELISA (coated) and the Biacore T200 titration; whole entry named; also called human CD1a pool B; full length CD1a
T2 sequence (P06126 18-295 limits assumed): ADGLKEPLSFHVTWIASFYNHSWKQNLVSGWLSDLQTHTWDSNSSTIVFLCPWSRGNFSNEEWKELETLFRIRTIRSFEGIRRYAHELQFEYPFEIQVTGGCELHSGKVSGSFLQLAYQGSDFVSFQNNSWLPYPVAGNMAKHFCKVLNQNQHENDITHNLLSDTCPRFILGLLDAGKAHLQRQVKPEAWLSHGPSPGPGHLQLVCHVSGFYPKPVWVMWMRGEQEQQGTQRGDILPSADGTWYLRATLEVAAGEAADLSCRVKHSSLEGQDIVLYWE
Protocol: (§1) CD1a-specific antibodies were identified by ELISA. […] 20 μl/well of peroxidase-conjugated goat anti-species IgG Fc-specific F(ab′)2 fragment (Jackson ImmunoResearch), diluted 1:5000 in block buffer was added and incubated at room temperature for 1 hour, followed by washing with wash buffer.
(§2) The antibodies were titrated through a dilution series and compared to a control rabbit IgG antibody.

Binder	Optical Density (OD)
B1	1.33 OD
B2	1.13 OD
B3	1.27 OD
B4	1.15 OD

The binders below were run against T3, human CD1a expressed on cells (human, UniProt P06126 17-327; P61769 21-119) (assay: flow cytometry, MOLT4 cells, 10 µg/ml antibody).
T3 construct: also called HEK - CD1a; C1R - CD1a
Protocol: (§3) CD1a-specific antibodies were identified by flow cytometry. Binding to proteins expressed on HEK, C1R and MOLT4 cell lines was assessed. […] The C1R-CD1a, C1R-empty vector and MOLT4 cell lines were washed in 1×PBS on the day required. All cell lines were counted and resuspended in 1×PBS and then stained for 30 minutes at 37° C. using the DiI or DiO cellular stains (Invitrogen). Cells were washed with flow cytometry buffer (1% bovine serum albumin, 2 mM EDTA and 0.1% sodium azide in PBS) before mixing 2 DiI-stained and DiO-stained populations together. The cells (20 μl/well) were then added to dilutions of antibody sample (B cell culture supernatant, TAP supernatant, clone supernatant, purified antibody solution) (20 μl/well) and incubated for 1 hour at 4° C. in a flow cytometry assay plate, before being washed with flow cytometry buffer. 10 μl/well of Alexafluor647-conjugated goat anti-species IgG Fc-specific F(ab′)2 fragment (Jackson ImmunoResearch), diluted 1:2500 in flow cytometry buffer, was added and incubated at 4° C. for 30 minutes, followed by washing with wash buffer. The fluorescence intensity was then measured on an iQue screener PLUS.
(§4) Binding was quantified as fold change in fluorescence intensity geomean over background assessed by flow cytometry.

Binder	Fluorescence Intensity Geomean (normalized to background)
B1	4.1 fold over background
B2	9.3 fold over background
B3	14.7 fold over background
B4	11.7 fold over background

Each binder was assayed against T4, chimeric CD1a pool B protein [human CD1a lipid binding domain, mouse CD1d Ig domain] (human; mouse, UniProt P06126 18-201; P11609 205-297, limits assumed) (assay: ELISA, 31.6 µg/ml antibody).
T4 sequence (P06126 other isoform, or with tags, fused parts or gaps mutant limits assumed): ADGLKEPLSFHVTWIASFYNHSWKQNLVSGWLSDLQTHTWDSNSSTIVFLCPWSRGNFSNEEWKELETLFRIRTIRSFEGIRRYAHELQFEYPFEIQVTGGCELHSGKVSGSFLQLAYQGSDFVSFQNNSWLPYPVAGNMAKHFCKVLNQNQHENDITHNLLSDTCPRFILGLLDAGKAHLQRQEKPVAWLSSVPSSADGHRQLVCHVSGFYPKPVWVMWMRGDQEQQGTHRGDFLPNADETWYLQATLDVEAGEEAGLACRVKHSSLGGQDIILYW
Protocol: as §1
(§5) The antibodies were titrated through a dilution series and compared to a control rabbit IgG antibody. […] Data shown for purified antibodies.

Binder	Optical Density (OD)
B1	1.33 OD
B2	1.35 OD
B3	1.4 OD
B4	1.35 OD

Each binder was assayed against T3, human CD1a expressed on cells (assay: flow cytometry, C1R cells, 3.16 µg/ml antibody).
Protocol: (§6) Binding to proteins expressed on HEK, C1R and MOLT4 cell lines was assessed. […] The C1R-CD1a, C1R-empty vector and MOLT4 cell lines were washed in 1×PBS on the day required. All cell lines were counted and resuspended in 1×PBS and then stained for 30 minutes at 37° C. using the DiI or DiO cellular stains (Invitrogen). Cells were washed with flow cytometry buffer (1% bovine serum albumin, 2 mM EDTA and 0.1% sodium azide in PBS) before mixing 2 DiI-stained and DiO-stained populations together. The cells (20 μl/well) were then added to dilutions of antibody sample (B cell culture supernatant, TAP supernatant, clone supernatant, purified antibody solution) (20 μl/well) and incubated for 1 hour at 4° C. in a flow cytometry assay plate, before being washed with flow cytometry buffer. 10 μl/well of Alexafluor647-conjugated goat anti-species IgG Fc-specific F(ab′)2 fragment (Jackson ImmunoResearch), diluted 1:2500 in flow cytometry buffer, was added and incubated at 4° C. for 30 minutes, followed by washing with wash buffer. The fluorescence intensity was then measured on an iQue screener PLUS.
as §4

Binder	Fluorescence Intensity Geomean (normalized to background)
B1	4.2 fold over background
B2	15.6 fold over background
B3	15.2 fold over background
B4	24 fold over background

Each binder was assayed against T4, chimeric CD1a pool B protein [human … (assay: ELISA, 1 µg/ml antibody).
Protocol: as §1, §5

Binder	Optical Density (OD)
B1	1.26 OD
B2	1.36 OD
B3	1.45 OD
B4	1.42 OD

Each binder was assayed against T5, human CD1c expressed on HEK-293 cells (human, UniProt P29017 18-333; P61769 21-119) (assay: flow cytometry, HEK-293 cells, 0.316 µg/ml antibody).
T5 construct: also called HEK - CD1c
Protocol: as §6
(§7) HEK-293 cells were transiently transfected with human CD1a, CD1b, CD1c or CD1d and co-transfected with human β2M.

Binder	Fluorescence Intensity Geomean (normalized to background)
B1	1 fold over background
B2	1 fold over background
B3	0.9 fold over background
B4	1.1 fold over background

Each binder was assayed against T3, human CD1a expressed on cells in the same assay as above.
Protocol: as §6, §7

Binder	Fluorescence Intensity Geomean (normalized to background)
B1	58.6 fold over background
B2	30.8 fold over background
B3	38.3 fold over background
B4	36.5 fold over background

The binders below were run against T6, human CD1b expressed on HEK-293 cells (human, UniProt P29016 18-333; P61769 21-119) in the same assay as above.
T6 construct: also called HEK - CD1b
Protocol: as §6, §7

Binder	Fluorescence Intensity Geomean (normalized to background)
B1	1.1 fold over background
B2	1 fold over background
B3	1 fold over background
B4	1 fold over background

What follows are binders tested against T7, human CD1d expressed on HEK-293 cells (human, UniProt P15813 20-335; P61769 21-119) in the same assay as above.
T7 construct: also called HEK - CD1d
Protocol: as §6, §7

Binder	Fluorescence Intensity Geomean (normalized to background)
B1	1 fold over background
B2	0.9 fold over background
B3	1 fold over background
B4	1 fold over background

The binders below were run against T4, chimeric CD1a pool B protein [human … (assay: ELISA, 100 µg/ml antibody).
Protocol: as §1, §5

Binder	Optical Density (OD)
B1	1.27 OD
B2	1.27 OD
B3	1.4 OD
B4	1.37 OD

Each binder was assayed against Cynomolgus monkey CD1a expressed on HEK-293 cells (Cynomolgus monkey, UniProt A0A2K5VQ68 17-326) (assay: flow cytometry, HEK-293 cells, 1 µg/ml antibody).
Cynomolgus monkey CD1a expressed on HEK-293 cells, sequence (A0A2K5VQ68 entry or part of it): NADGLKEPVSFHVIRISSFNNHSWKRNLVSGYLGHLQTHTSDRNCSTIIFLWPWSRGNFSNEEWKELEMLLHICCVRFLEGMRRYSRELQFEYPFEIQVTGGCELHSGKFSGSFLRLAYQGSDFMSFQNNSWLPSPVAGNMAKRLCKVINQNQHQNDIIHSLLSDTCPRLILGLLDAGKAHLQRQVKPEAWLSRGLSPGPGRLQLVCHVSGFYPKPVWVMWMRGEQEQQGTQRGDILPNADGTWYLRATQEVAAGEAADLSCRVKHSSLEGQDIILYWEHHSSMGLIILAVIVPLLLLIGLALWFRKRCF
Protocol: as §6, §4

Binder	Fluorescence Intensity Geomean (normalized to background)
B1	10.6 fold over background
B2	12.9 fold over background
B4	0.8 fold over background

These binders were tested against T3, human CD1a expressed on cells (assay: flow cytometry, C1R cells, 10 µg/ml antibody).
Protocol: as §6, §4

Binder	Fluorescence Intensity Geomean (normalized to background)
B1	2.3 fold over background
B2	11.7 fold over background
B3	8.3 fold over background
B4	16.9 fold over background

Each binder was assayed against T3, human CD1a expressed on cells (assay: flow cytometry, MOLT4 cells, 0.316 µg/ml antibody).
Protocol: as §3, §4

Binder	Fluorescence Intensity Geomean (normalized to background)
B1	15.2 fold over background
B2	27.3 fold over background
B3	27.1 fold over background
B4	29.6 fold over background

What follows are binders tested against T3, human CD1a expressed on cells (assay: flow cytometry, MOLT4 cells, 31.6 µg/ml antibody).
Protocol: as §3, §4

Binder	Fluorescence Intensity Geomean (normalized to background)
B1	2.2 fold over background
B2	5.4 fold over background
B3	7.5 fold over background
B4	5.6 fold over background

Each binder was assayed against T3, human CD1a expressed on cells (assay: flow cytometry, MOLT4 cells, 100 µg/ml antibody).
Protocol: as §3, §4

Binder	Fluorescence Intensity Geomean (normalized to background)
B1	0.8 fold over background
B2	3.9 fold over background
B3	5.2 fold over background
B4	3.7 fold over background

The binders below were run against T4, chimeric CD1a pool B protein [human … (assay: ELISA, 10 µg/ml antibody).
Protocol: as §1, §5

Binder	Optical Density (OD)
B1	1.31 OD
B2	1.4 OD
B3	1.46 OD
B4	1.4 OD

These binders were tested against T2, human CD1a protein (pool B) (assay: ELISA, 31.6 µg/ml antibody).
Protocol: as §1, §2

Binder	Optical Density (OD)
B1	1.28 OD
B2	1.07 OD
B3	1.24 OD
B4	1.16 OD

Molecular target: T1, Cynomolgus monkey CD1a protein
Test: ELISA, 10 µg/ml antibody

Binder	Optical Density (OD)
B1	0.52 OD
B2	0.79 OD
B3	0.86 OD
B4	0.16 OD

The binders below were run against T2, human CD1a protein (pool B) (assay: ELISA, 1 µg/ml antibody).
Protocol: as §1, §2

Binder	Optical Density (OD)
B1	1.34 OD
B2	1.14 OD
B4	1.15 OD

Each binder was assayed against T3, human CD1a expressed on cells (assay: flow cytometry, MOLT4 cells, 3.16 µg/ml antibody).
Protocol: as §3, §4

Binder	Fluorescence Intensity Geomean (normalized to background)
B1	7.4 fold over background
B2	18.9 fold over background
B3	22.6 fold over background
B4	23.9 fold over background

The binders below were run against T2, human CD1a protein (pool B) (assay: ELISA, 10 µg/ml antibody).
Protocol: as §1, §2

Binder	Optical Density (OD)
B1	1.34 OD
B2	1.12 OD
B3	1.28 OD
B4	1.18 OD

These binders were tested against T5, human CD1c expressed on HEK-293 cells (assay: flow cytometry, HEK-293 cells, 31.6 µg/ml antibody).
Protocol: as §6, §7

Binder	Fluorescence Intensity Geomean (normalized to background)
B1	0.9 fold over background
B2	1 fold over background
B3	1 fold over background
B4	1 fold over background

What follows are binders tested against T3, human CD1a expressed on cells (assay: flow cytometry, HEK-293 cells, 31.6 µg/ml antibody).
Protocol: as §6, §7

Binder	Fluorescence Intensity Geomean (normalized to background)
B1	8.2 fold over background
B2	6.3 fold over background
B3	10.9 fold over background
B4	5.6 fold over background

Each binder was assayed against T6, human CD1b expressed on HEK-293 cells (assay: flow cytometry, HEK-293 cells, 31.6 µg/ml antibody).
Protocol: as §6, §7

Binder	Fluorescence Intensity Geomean (normalized to background)
B1	1 fold over background
B2	1 fold over background
B3	1.1 fold over background
B4	1 fold over background

Molecular target: T1, Cynomolgus monkey CD1a protein
Test: ELISA, 0.01 µg/ml antibody

Binder	Optical Density (OD)
B1	0.1 OD
B2	0.48 OD
B3	0.22 OD
B4	0.07 OD
